Here are results for 2 molecules from article PMC5499572 (Nucleic Acids Research, 2017).

In one assay the target is T1, Rsa1p_(230-381) (S. cerevisiae, UniProt Q08932 230-381).
T1 sequence: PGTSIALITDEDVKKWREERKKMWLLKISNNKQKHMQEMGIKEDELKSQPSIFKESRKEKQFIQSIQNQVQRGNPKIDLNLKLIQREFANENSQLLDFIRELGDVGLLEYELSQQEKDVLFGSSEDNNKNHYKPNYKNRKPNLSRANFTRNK
Description: native gel or EMSA.

The next assay deals with T2, His6TRX-Rrp9p (S. cerevisiae, UniProt Q06506 1-573).
T2 sequence: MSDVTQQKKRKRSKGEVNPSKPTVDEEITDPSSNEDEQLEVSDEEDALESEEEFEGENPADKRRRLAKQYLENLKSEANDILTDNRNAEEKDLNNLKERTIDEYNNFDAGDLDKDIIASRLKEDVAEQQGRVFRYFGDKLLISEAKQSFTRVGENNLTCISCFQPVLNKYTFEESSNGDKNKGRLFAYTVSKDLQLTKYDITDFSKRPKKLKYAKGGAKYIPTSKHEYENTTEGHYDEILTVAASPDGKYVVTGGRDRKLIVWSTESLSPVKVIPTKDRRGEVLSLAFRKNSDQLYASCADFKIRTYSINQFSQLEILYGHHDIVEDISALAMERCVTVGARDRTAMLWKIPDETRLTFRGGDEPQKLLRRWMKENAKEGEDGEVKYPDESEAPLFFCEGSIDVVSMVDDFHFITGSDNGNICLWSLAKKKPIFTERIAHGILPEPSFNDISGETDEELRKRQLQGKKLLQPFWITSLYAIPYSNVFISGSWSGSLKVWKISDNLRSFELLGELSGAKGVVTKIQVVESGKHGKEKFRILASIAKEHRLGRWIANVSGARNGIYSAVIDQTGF
Description: native gel or EMSA.

Positions count from the first letter of the chain named.

B1: Snu13p (recombinant, wild type) (natural protein)
chain: MSAPNPKAFPLADAALTQQILDVVQQAANLRQLKKGANEATKTLNRGISEFIIMAADCEPIEILLHLPLLCEDKNVPYVFVPSRVALGRACGVSRPVIAASITTNDASAIKTQIYAVKDKIETLLI
B1: the binding result with Rsa1p_(230-381) and with His6TRX-Rrp9p was “binds” in each case.

B2: Snu13p variant E72/A (recombinant) (natural protein)
chain: B1 chain with E72A
As for B2, in the assay with His6TRX-Rrp9p, the binding result was “binds”.
